Measured values published in PMC11416365, “Exploring the manganese-dependent interaction between a transcription factor and its corresponding DNA: insights from gas-phase electrophoresis on a nES GEMMA instrument” (Analytical and Bioanalytical Chemistry, 2024).

Molecular target: the molecule itself
Assay: nES GEMMA (gas-phase electrophoresis, nES DMA); BMntR alone at different concentrations, electrosprayed from 40 mM ammonium acetate pH 8.4; EM diameter 5.9 nm turned into a molecular weight by an EM diameter/MW correlation (34.6 kDa against 33.8 kDa theoretical for the dimer)

B1: MntR protein from B. subtilis (natural protein, Bacillus subtilis, UniProt P54512 1-142, looked up)
chain: MTTPSMEDYIEQIYMLIEEKGYARVSDIAEALAVHPSSVTKMVQKLDKDEYLIYEKYRGLVLTSKGKKIGKRLVYRHELLEQFLRIIGVDEEKIYNDVEGIEHHLSWNSIDRIGDLVQYFEEDDARKKDLKSIQKKTEHHNQ
notes: Manganese-dependent transcription factor MntR of Bacillus subtilis, UniProt P54512; Theoretical mass of the dimer printed as 33.8 kDa; also called BMntR; B. subtilis MntR protein; source: purified as before [3]
With B1 the “stoichiometry N” value was 2.
